Results taken from PMC3283691, “Low-Resolution Molecular Models Reveal the Oligomeric State of the PPAR and the Conformational Organization of Its Domains in Solution” (PLoS ONE, 2012).
“And” between values parts separate entries of the source, which are not always exact repeats. Equal values may be shown once.

T1: human PPARγ LBD (amino acids 204–477) (Homo sapiens (Human), UniProt P37231-2)
T1 chain: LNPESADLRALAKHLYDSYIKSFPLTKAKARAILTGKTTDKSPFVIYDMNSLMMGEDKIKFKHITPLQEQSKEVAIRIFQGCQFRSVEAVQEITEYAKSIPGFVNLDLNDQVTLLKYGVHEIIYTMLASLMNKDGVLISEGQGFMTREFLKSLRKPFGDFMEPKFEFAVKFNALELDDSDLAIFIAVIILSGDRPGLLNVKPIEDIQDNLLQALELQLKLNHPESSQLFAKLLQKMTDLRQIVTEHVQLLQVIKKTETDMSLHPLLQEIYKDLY

T2: human PPARγ LBD (amino acids 204–477) (human, UniProt P37231-2 204-477)
T2 construct: Cloned in pET28a(+); His-tag removed with thrombin; also called hPPARγ LBD; PPAR LBD
T2 sequence (looked up): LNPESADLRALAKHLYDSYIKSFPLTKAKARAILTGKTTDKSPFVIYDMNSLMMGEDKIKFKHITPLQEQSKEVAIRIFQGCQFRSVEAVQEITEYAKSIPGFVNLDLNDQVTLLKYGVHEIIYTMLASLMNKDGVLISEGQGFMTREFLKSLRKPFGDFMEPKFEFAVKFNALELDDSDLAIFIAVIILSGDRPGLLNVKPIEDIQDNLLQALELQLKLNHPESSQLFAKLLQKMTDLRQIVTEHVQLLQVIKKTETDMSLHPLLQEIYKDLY

T3: human PPARγ DBD-LBD (amino acids 101–468) (Homo sapiens (Human), UniProt P37231-2)
T3 chain: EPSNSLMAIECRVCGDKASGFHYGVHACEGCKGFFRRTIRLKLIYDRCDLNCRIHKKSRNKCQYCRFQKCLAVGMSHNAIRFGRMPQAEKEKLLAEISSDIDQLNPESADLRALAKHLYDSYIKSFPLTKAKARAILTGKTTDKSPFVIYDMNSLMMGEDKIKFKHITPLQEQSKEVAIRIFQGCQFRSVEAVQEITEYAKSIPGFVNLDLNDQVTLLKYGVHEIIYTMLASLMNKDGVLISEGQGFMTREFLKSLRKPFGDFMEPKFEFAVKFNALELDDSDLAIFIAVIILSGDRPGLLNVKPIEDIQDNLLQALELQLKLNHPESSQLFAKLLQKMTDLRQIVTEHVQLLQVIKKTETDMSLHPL


What was measured:
[1] = molecular target: T1, human PPARγ LBD (amino acids 204–477); experiment: SEC, native PAGE, DLS, SAXS
[2] = molecular target: the molecule itself; experiment: dynamic light scattering; DLS after gel filtration; hPPARγ LBD at different concentrations
[3] = molecular target: the molecule itself; experiment: native gel or EMSA; native polyacrylamide gel electrophoresis after gel filtration; RH from band mobility; hPPARγ LBD at 1 to 20 mg/mL
[4] = molecular target: T2, human PPARγ LBD (amino acids 204–477); experiment: SEC; analytical gel filtration, Superdex 75 HR 10/30 (LBD constructs) or Superdex 200 HR 10/30 (DBD-LBD constructs); 20 mM Hepes-Na pH 8.0, 3 mM dithiothreitol, 200 mM NaCl, 5% glycerol; heterodimers formed from 20 mg/mL of each protein, 1:1 molar, 1 h at 4°C; RH from calibration standards; details: both partners purified
[5] = molecular target: the molecule itself; experiment: as above
[6] = molecular target: T3, human PPARγ DBD-LBD (amino acids …); experiment: SEC, SAXS, H/D exchange MS

binding result [1] | binding result [4] | binding result [6] | Binder | stoichiometry N [2] | stoichiometry N [3] | stoichiometry N [5]
binds | binds | – | human RXRα LBD (amino acids 225–462) (domain or fragment, UniProt P19793 225-462, looked up, Cloned in pET28a(+); also called hRXRα LBD) SANEDMPVERILEAELAVEPKTETYVEANMGLNPSSPNDPVTNICQAADKQLFTLVEWAKRIPHFSELPLDDQVILLRAGWNELLIASFSHRSIAVKDGILLATGLHVHRNSAHSAGVGAIFDRVLTELVSKMRDMQMDKTELGCLRAIVLFNPDSKGLSNPAEVEALREKVYASLEAYCKHKYPEQPGRFAKLLLRLPALRSIGLKCLEHLFFFKLIGDTPIDTFLMEMLEAPHQMT | 4 and 2 | 4 and 2 | 2 and 4
– | – | binds | human RXRα DBD-LBD (amino acids 135–462) (protein) CAICGDRSSGKHYGVYSCEGCKGFFKRTVRKDLTYTCRDNKDCLIDKRQRNRCQYCRYQKCLAMGMKREAVQEERQRGKDRNENEVESTSSANEDMPVERILEAELAVEPKTETYVEANMGLNPSSPNDPVTNICQAADKQLFTLVEWAKRIPHFSELPLDDQVILLRAGWNELLIASFSHRSIAVKDGILLATGLHVHRNSAHSAGVGAIFDRVLTELVSKMRDMQMDKTELGCLRAIVLFNPDSKGLSNPAEVEALREKVYASLEAYCKHKYPEQPGRFAKLLLRLPALRSIGLKCLEHLFFFKLIGDTPIDTFLMEMLEAPHQMT | – | – | –
